The results in this text go back to publication PMC5703498, “Plant-type phytoene desaturase: Functional evaluation of structural implications” (PLoS ONE, 2017).

Holding throughout (type): biochemical, Oryza sativa
Substrate in data set [1]: CC(C)=CCC/C(C)=C/CC/C(C)=C/CC/C(C)=C/C=C\C=C(/C)CC/C=C(\C)CC/C=C(\C)CCC=C(C)C
Put plainly: Michaelis-Menten kinetics of purified enzyme in liposome assay (KM), HPLC. Particulars: FAD hydrophobic substrate cavity, C11-C12 near the flavin.

Substrate in data set [2]: CC(C)=CCC/C(C)=C/CC\C(C)=C/C=C/C(C)=C/C=C\C=C(/C)CC/C=C(\C)CC/C=C(\C)CCC=C(C)C
Described as above. The following applies: FAD competes with phytoene at the active site.

Substrate in data set [3]: CCCCCCCCCCC1=CC(=O)C(C)=C(C)C1=O
Nature of the data set: Michaelis-Menten kinetics of purified enzyme in liposome assay (KM). The following applies: FAD electron acceptor; same substrate cavity as the carotene, successively occupied, near the FAD.

Substrate in data set [4]: CC(C)=CCC/C(C)=C/CC/C(C)=C/CC/C(C)=C/C=C\C=C(/C)CC/C=C(\C)CC/C=C(\C)CCC=C(C)C
Nature of the data set: Michaelis-Menten kinetics of purified mutant in liposome assay (KM). The following applies: FAD hydrophobic substrate cavity.

Substrate in data set [5]: CCCCCCCCCCC1=CC(=O)C(C)=C(C)C1=O
Described as above. The following applies: FAD electron acceptor; same substrate cavity as the carotene.

B1: Phytoene desaturase (OsPDS-His6) (Oryza sativa Indica Group) (protein)
chain: AGQLSSFFRNSEQPTKPLQVVIAGAGLAGLSTAKYLADAGHKPILLEARDVLGGKIAAWKDEDGDWYETGLHIFFGAYPNIQNLFGELGINDRLQWKEHSMIFAMPNKPGEFSRFDFPETLPAPLNGIWAILRNNEMLTWPEKVKFALGLLPAMVGGQAYVEAQDGFTVSEWMKKQGVPDRVNDEVFIAMSKALNFINPDELSMQCILIALNRFLQEKHGSKMAFLDGNPPERLCMPIVDHVRSLGGEVRLNSRIQKIELNPDGTVKHFALTDGTQITGDAYVFATPVDILKLLVPQEWKEISYFKKLEKLVGVPVINVHIWFDRKLKNTYDHLLFSRSSLLSVYADMSVTCKEYYDPNRSMLELVFAPAEEWVGRSDTEIIEATMQELAKLFPDEIAADQSKAKILKYHVVKTPRSVYKTIPDCEPCRPLQRSPIEGFYLAGDYTKQKYLASMEGAVLSGKLCAQSVVEDYKMLSRRSLKSLQSEVPVAS
Broadly, the Km is the concentration of substrate that gives half-maximal velocity. For B1, the Km is on record as 53.9 ± 18.1 mM in data set [1], 66.8 ± 20.7 mM in data set [2] and 1.3 ± 0.2 mM in data set [3].

B2: Phytoene desaturase (OsPDS-His6) (Oryza sativa Indica Group; R300S) (protein)
chain: AGQLSSFFRNSEQPTKPLQVVIAGAGLAGLSTAKYLADAGHKPILLEARDVLGGKIAAWKDEDGDWYETGLHIFFGAYPNIQNLFGELGINDRLQWKEHSMIFAMPNKPGEFSRFDFPETLPAPLNGIWAILRNNEMLTWPEKVKFALGLLPAMVGGQAYVEAQDGFTVSEWMKKQGVPDRVNDEVFIAMSKALNFINPDELSMQCILIALNSFLQEKHGSKMAFLDGNPPERLCMPIVDHVRSLGGEVRLNSRIQKIELNPDGTVKHFALTDGTQITGDAYVFATPVDILKLLVPQEWKEISYFKKLEKLVGVPVINVHIWFDRKLKNTYDHLLFSRSSLLSVYADMSVTCKEYYDPNRSMLELVFAPAEEWVGRSDTEIIEATMQELAKLFPDEIAADQSKAKILKYHVVKTPRSVYKTIPDCEPCRPLQRSPIEGFYLAGDYTKQKYLASMEGAVLSGKLCAQSVVEDYKMLSRRSLKSLQSEVPVAS
In the case of B2, the Michaelis-Menten constant (Km) came out at 4.5 ± 2.6 mM in data set [4] and 0.4 ± 0.1 mM in data set [5].
